According to patent US20090263375:

What was measured:
[1] = molecular target: T1, Flag-Star-PAP (full length)
T1 chain: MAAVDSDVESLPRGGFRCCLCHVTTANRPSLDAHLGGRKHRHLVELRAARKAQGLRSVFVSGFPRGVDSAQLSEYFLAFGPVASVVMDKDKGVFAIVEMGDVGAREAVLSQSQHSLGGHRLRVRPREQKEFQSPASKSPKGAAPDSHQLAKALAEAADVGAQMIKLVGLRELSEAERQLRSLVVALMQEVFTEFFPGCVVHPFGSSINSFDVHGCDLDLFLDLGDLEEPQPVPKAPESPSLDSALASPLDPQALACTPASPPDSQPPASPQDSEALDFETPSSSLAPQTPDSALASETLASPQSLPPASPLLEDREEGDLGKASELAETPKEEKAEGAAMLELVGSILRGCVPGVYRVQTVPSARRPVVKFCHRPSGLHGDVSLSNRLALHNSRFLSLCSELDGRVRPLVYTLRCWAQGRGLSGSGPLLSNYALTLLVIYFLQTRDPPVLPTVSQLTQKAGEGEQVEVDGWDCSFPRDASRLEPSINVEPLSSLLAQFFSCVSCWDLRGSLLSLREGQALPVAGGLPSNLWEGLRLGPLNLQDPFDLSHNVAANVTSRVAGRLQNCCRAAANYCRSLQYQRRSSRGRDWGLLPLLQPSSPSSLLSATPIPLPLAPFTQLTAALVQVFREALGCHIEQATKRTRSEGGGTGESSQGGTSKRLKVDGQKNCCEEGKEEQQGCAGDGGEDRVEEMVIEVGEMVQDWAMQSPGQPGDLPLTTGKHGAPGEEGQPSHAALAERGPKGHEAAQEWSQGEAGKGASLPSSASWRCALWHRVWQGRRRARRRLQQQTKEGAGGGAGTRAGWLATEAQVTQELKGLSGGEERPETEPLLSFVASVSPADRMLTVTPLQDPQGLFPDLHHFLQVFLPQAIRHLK

[2] = molecular target: T2, FLAG-Star-PAP ΔPRR ½ (lacking amino acids 223-274)
T2 chain: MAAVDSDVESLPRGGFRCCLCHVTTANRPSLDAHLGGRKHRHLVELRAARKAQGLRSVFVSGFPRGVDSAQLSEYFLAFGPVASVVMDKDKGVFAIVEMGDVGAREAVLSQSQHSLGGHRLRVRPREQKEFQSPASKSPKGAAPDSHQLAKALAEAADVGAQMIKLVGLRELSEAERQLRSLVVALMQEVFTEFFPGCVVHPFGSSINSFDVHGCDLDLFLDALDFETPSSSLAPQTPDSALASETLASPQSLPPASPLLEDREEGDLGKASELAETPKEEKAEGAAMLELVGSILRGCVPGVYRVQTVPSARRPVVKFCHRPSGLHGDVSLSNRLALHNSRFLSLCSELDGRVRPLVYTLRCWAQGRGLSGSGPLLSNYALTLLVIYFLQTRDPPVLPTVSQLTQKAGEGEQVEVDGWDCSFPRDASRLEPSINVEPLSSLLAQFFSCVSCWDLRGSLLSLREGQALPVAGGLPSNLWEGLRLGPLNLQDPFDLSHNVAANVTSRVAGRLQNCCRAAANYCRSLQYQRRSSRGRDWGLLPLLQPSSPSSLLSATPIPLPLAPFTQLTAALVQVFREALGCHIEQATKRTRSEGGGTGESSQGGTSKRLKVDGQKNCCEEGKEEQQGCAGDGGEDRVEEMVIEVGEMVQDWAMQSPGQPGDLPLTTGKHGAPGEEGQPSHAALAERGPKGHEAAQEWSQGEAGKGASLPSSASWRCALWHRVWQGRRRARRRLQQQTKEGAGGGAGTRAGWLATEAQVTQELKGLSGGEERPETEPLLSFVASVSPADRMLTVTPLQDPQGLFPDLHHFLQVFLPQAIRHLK

B1: FLAG-CKIα (wild type) (protein)
chain: MASSSGSKAEFIVGGKYKLVRKIGSGSFGDIYLAINITNGEEVAVKLESQKARHPQLLYESKLYKILQGGVGIPHIRWYGQGKDYNVLVMDLLGPSLEDLFNFCSRRFTMKTVLMLADQMISRIEYVHTKNFIHRDIKPDNFLMGIGRHCNKLFLIDFGLAKKYRDNRTRQHIPYREDKNLTGTARYASINAHLGIEQSRRDDMESLGYVLMYFNRTSLPWQGLKAATKKQKYEKISEKKMSTPVEVLCKGFPAEFAMYLNYCRGLRFEEAPDYMYLRQLFRILFRTLNHQYDYTFDWTMLKQKAAQQAASSSGQGQQAQTPTGF
- in vitro kinase assay: phosphorylation of heat inactivated FLAG-Star-PAP [1]: Purified FLAG-CKIα was able to directly phosphorylate heat inactivated Star-PAP
- in vitro kinase assay: phosphorylation of FLAG-Star-PAP truncation and deletion mutants [2]: CKIα was able to phosphorylate all truncation mutants except those which lacked the first half of the proline rich region (ΔPRR ½, amino acids 223-274)
